Measurements taken from patent publication US20220403009A1 (IGM BIOSCIENCES, published 2022).
Positions count from the first letter of the chain named.

B1: Ab1 IgM (antibody)
VH: EVQLVESGGGLVQPGGSLRLSCAASGFTVSSNYMSWVRQAPGKGLEWVSVIYSGGSTFYADSVKGRFTISRDNSMNTLFLQMNSLRAEDTAVYYCARVLPMYGDYLDYWGQGTLVTVSS
VL: not shown
chain: not shown
B2: Ab1 IgG (antibody, V domains shown)
VH: B1 VH
VL: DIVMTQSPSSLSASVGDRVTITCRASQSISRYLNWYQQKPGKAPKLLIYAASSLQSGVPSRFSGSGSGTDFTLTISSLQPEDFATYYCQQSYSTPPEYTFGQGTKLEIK
B3: Ab3 IgM (antibody)
VH: QVQLVESGGGLVKPGGSLRLSCAASGFTFSDYYMSWIRQAPGKGLEWVSYITYSGSTIYYADSVKGRFTISRDNAKSSLYLQMNSLRAEDTAVYYCARDRGTTMVPFDYWGQGTLVTVSS
VL: DIQMTQSPSSLSASVGDRVTITCQASQDITNYLNWYQQKPGKAPKLLIYAASNLETGVPSRFSGSGSGTDFTFTISGLQPEDIATYYCQQYDNLPLTFGGGTKVEIK
chain: not shown
B4: Ab4 IgM (antibody)
VH: QVQLVESGGGVVQPGRSLRLSCAASGFTFSNYAMYWVRQAPGKGLEWVAVISYDGSNKYYADSVKGRFTISRDNSKNTLYLQMNSLRTEDTAVYYCASGSDYGDYLLVYWGQGTLVTVSS
VL: QSALTQPASVSGSPGQSITISCTGTSSDVGGYNYVSWYQQHPGKAPKLMIYDVSKRPSGVSNRFSGSKSGNTASLTISGLQSEDEADYYCNSLTSISTWVFGGGTKLTVL
chain: not shown
B5: Ab4 IgG (antibody, V domains shown)
VH: B4 VH
VL: B4 VL
B6: Ab7 IgM (antibody)
VH: EVQLVESGGGLVQPGGSLRLSCAVSGFTVSSNYMSWVRQAPGKGLEWVSVIYTGGGTYYADSVKGRFTISRDNSKNTLYLQMNTLRAEDTTVYYCARGDGSYYRAFDYWGQGTLVTVSS
VL: DIQMTQSPSSLSASVGDRVTITCRASQSISNYLNWYHQKPGKAPKLLIYAASSLQSGVPSRFSGSGSGTDFTLTISSLQPEDFATYYCQQSYSPPPTFGPGTKVEIK
chain: not shown
B7: Ab7 IgG (antibody, V domains shown)
VH: B6 VH
VL: B6 VL
B8: Ab8 IgM (antibody)
VH: EVQLVESGGGLIQPGGSLRLSCAASGFTVSRNYMNWVRQAPGKGLEWVSVIYSGGSTFYADSVKGRFTISRDNSKNTLYLQMNSLRAEDTAVYYCARDASSYGIDWGQGTLVTVSS
VL: not shown
chain: not shown
B9: Ab8 IgG (antibody, V domains shown)
VH: B8 VH
VL: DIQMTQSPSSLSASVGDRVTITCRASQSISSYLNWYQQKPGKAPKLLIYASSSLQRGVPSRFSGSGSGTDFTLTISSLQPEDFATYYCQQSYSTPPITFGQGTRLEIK
B10: CR3022 IgA2m2 + J (antibody)
VH: QMQLVQSGTEVKKPGESLKISCKGSGYGFITYWIGWVRQMPGKGLEWMGIIYPGDSETRYSPSFQGQVTISADKSINTAYLQWSSLKASDTAIYYCAGGSGISTPMDVWGQGTTVTVSS
VL: not shown
chain: not shown
B11: CR3022 IgM + J (antibody)
VH: B10 VH
VL: not shown
chain: not shown
B12: CR3022 IgA1 + J (antibody)
VH: B10 VH
VL: not shown
chain: not shown
B13: Ab10 IgM (antibody)
VH: QITLKESGPTLVKPTQTLTLTCTFSGFSLSTSGVGVGWIRQPPGKALEWLALIYWDDDKRYSPSLKSRLTITKDTSKNQVVLTMTNMDPVDTATYYCAHHKIERIFDYWGQGTLVTVSS
VL: QSALAQPASVSGSPGQSITISCTGTSSDVGAYNYVSWYQQHPGKAPKLMIYDVSKRPSGVSNRFSGSKSGNTASLTISGLQAEDEADYYCSSYTTSSTVFGGGTKLTVL
chain: not shown
B14: Ab10 IgG (antibody, V domains shown)
VH: B13 VH
VL: B13 VL
B15: Ab11 IgM (antibody)
VH: QVQLVQSGAEVKKPGSSVKVSCKASGGTFSSYAISWVRQAPGQGLEWMGGNIPIFGTANYAQKFQGRVTITADESTSTAYMELSSLRSEDTAVYYCARGVGYRGVIPLNWFDPWGQGTVVTVSS
VL: EIVMTQSPATLSVSPGERATLSCRASQSVSSDLAWYQHKPGQAPRLLIYGASTRATGIPVRFSGSGSGTEFTLTISSLQSEDFAVYYCQQYNNWPPFTFGGGTKVEIK
chain: not shown
B16: Ab11 IgG (antibody, V domains shown)
VH: B15 VH
VL: B15 VL
B17: Ab12 IgM (antibody)
VH: not shown
VL: B4 VL with S82A, A86G, N91S, L93Y, I96S
chain: not shown
B18: Ab12 IgG (antibody, V domains shown)
VH: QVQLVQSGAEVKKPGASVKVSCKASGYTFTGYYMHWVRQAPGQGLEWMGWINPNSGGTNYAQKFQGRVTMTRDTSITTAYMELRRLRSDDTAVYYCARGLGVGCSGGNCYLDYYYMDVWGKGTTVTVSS
VL: B4 VL with S82A, A86G, N91S, L93Y, I96S
B19: Ab3 IgG (antibody, V domains shown)
VH: B3 VH
VL: B3 VL

What follows are binders tested against T1, SARS-CoV-2 spike protein on live SARS-CoV-2 virus (SARS-CoV-2, UniProt P0DTC2 13-1273) (assay: cell-based or functional assay).

First: B1
Second: B4
The “IgM Fold Improvement Over IgG1” value of the first is lower: 10 fold for the first, 59 fold for the second.

Going from B6 to B8, the “IgM Fold Improvement Over IgG1” value falls from 19 fold to 3.3 fold.

Going from B1 to B3, the “IgM IC50, SARS-CoV-2 live virus microneutralization” value falls from 0.013 µg/mL to 0.0038 µg/mL (3.4-fold).

First: B4
Second: B6
The “IgM IC50, SARS-CoV-2 live virus microneutralization” value of the first is 1.9-fold higher: 0.0031 µg/mL for the first, 0.0016 µg/mL for the second.

With B8 the “IgM IC50, SARS-CoV-2 live virus microneutralization” value was 0.028 µg/mL.

B2 and B5 are within 1.5-fold of each other in “IgG IC50, SARS-CoV-2 live virus microneutralization” value: 0.13 µg/mL for the first, 0.18 µg/mL for the second.

Compared with B7, B9 is 3.1-fold higher in “IgG IC50, SARS-CoV-2 live virus microneutralization” value: 0.03 µg/mL for the first, 0.093 µg/mL for the second.

What follows are binders tested against SARS-CoV-1 spike protein on HIV-based pseudovirus (SARS-CoV, UniProt P59594 14-1255) (assay: cell-based or functional assay).

Compared with B10, B11 is 4.9-fold lower in “IC50, SARS-CoV-1 pseudovirus neutralization” value: 2.3 µg/mL for the first, 0.47 µg/mL for the second.

In the case of B12, the “IC50, SARS-CoV-1 pseudovirus neutralization” value is reported as 1.9 µg/mL.

Each binder was assayed against T2, SARS-CoV-2 spike protein on pseudovirus (SARS-CoV-2, UniProt P0DTC2 13-1273) (assay: cell-based or functional assay).

B10 and B11 cannot be ordered by “IC50, SARS-CoV-2 pseudovirus neutralization” value: greater than 100000 µg/mL for the first, greater than 100000 µg/mL for the second.

In the case of B12, the “IC50, SARS-CoV-2 pseudovirus neutralization” value is reported as greater than 100000 µg/mL.

These binders were tested against recombinant SARS-CoV-2 spike (S) protein trimer (SARS-CoV-2, UniProt P0DTC2 13-1213) (assay: not given).

Compared with B13, B14 is 3.3-fold higher in “EC50 (read off the curve)” value: roughly 0.3 nM for the first, roughly 1 nM for the second.

Biological target: T2, SARS-CoV-2 spike protein on pseudovirus
Test: cell-based or functional assay
Remark: another data set of the same source

First: B1
Second: B4
The “IgM Fold Improvement Over IgG1” value of the first is higher: 67 fold for the first, 31 fold for the second.

Compared with B6, B13 is higher in “IgM Fold Improvement Over IgG1” value: 8.8 fold for the first, 64 fold for the second.

Compared with B15, B17 is higher in “IgM Fold Improvement Over IgG1” value: 86 fold for the first, 180 fold for the second.

B1 and B3 are within 1.5-fold of each other in “IgM IC50, SARS-CoV-2 pseudovirus neutralization” value: 0.15 ng/mL for the first, 0.11 ng/mL for the second.

B4 and B6 are within 1.5-fold of each other in “IgM IC50, SARS-CoV-2 pseudovirus neutralization” value: 0.058 ng/mL for the first, 0.042 ng/mL for the second.

Going from B8 to B13, the “IgM IC50, SARS-CoV-2 pseudovirus neutralization” value falls from 2.7 ng/mL to 0.092 ng/mL (29-fold).

First: B15
Second: B17
The “IgM IC50, SARS-CoV-2 pseudovirus neutralization” value of the first is 8.8-fold higher: 3.7 ng/mL for the first, 0.42 ng/mL for the second.

Going from B2 to B5, the “IgG IC50, SARS-CoV-2 pseudovirus neutralization” value falls from 0.01 µg/mL to 0.0018 µg/mL (5.6-fold).

Going from B7 to B9, the “IgG IC50, SARS-CoV-2 pseudovirus neutralization” value rises from 0.00037 µg/mL to 0.0019 µg/mL (5.1-fold).

Compared with B14, B16 is 54-fold higher in “IgG IC50, SARS-CoV-2 pseudovirus neutralization” value: 0.0059 µg/mL for the first, 0.32 µg/mL for the second.

Going from B18 to B19, the “IgG IC50, SARS-CoV-2 pseudovirus neutralization” value falls from 0.077 µg/mL to 0.00057 µg/mL (140-fold).

Biological target: T1, SARS-CoV-2 spike protein on live …
Test: cell-based or functional assay
Remark: another data set of the same source

First: B13
Second: B15
The “IgM Fold Improvement Over IgG1” value of the first is lower: 390 fold for the first, greater than 870 fold for the second.

With B17 the “IgM Fold Improvement Over IgG1” value was 330 fold.

First: B13
Second: B15
The “IgM IC50, SARS-CoV-2 live virus microneutralization” value of the first is 48-fold lower: 0.0012 µg/mL for the first, 0.057 µg/mL for the second.

For B17, the “IgM IC50, SARS-CoV-2 live virus microneutralization” value was 0.0081 µg/mL.

Compared with B14, B16 is higher in “IgG IC50, SARS-CoV-2 live virus microneutralization” value: 0.47 µg/mL for the first, greater than 50 µg/mL for the second.

With B18 the “IgG IC50, SARS-CoV-2 live virus microneutralization” value was 2.7 µg/mL.
